According to the supplement of paper PMC10567573:

B1: RTP4 (parent)
chain: TYWEHWTSQGQVRMRLFGQRCQKC
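Note: lentivirally expressed fusions sorted by FACS into six bins by GFP to DsRed ratio, PSI derived from sequencing read proportions per bin multiplied by bin number.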

Variants of: B1
Assay: protein stability index of a GFP-peptide fusion (GPS, HEK-293T) (PSI 1-6); higher = more stable
Conditions: c terminus: a fixed tail appended
In the case of TAWEHWTSQGQVRMRLFGQRCQKC [Y2A], the protein stability index is reported as 2.35.
For TCWEHWTSQGQVRMRLFGQRCQKC [Y2C], the protein stability index was 2.69.
For TDWEHWTSQGQVRMRLFGQRCQKC [Y2D], the protein stability index was 1.66.
With TEWEHWTSQGQVRMRLFGQRCQKC [Y2E] the protein stability index was 2.98.
In the case of TFWEHWTSQGQVRMRLFGQRCQKC [Y2F], the protein stability index is reported as 1.32.
Variant TGWEHWTSQGQVRMRLFGQRCQKC [Y2G] has a protein stability index of 3.25.
THWEHWTSQGQVRMRLFGQRCQKC [Y2H] gave a protein stability index of 1.99.
With TIWEHWTSQGQVRMRLFGQRCQKC [Y2I] the protein stability index was 1.74.
Variant TKWEHWTSQGQVRMRLFGQRCQKC [Y2K] has a protein stability index of 2.19.
Work on TMWEHWTSQGQVRMRLFGQRCQKC [Y2M] yielded a protein stability index of 2.39.
Variant TNWEHWTSQGQVRMRLFGQRCQKC [Y2N] has a protein stability index of 2.49.
In the case of TPWEHWTSQGQVRMRLFGQRCQKC [Y2P], the protein stability index is reported as 2.1.
With TTWEHWTSQGQVRMRLFGQRCQKC [Y2T] the protein stability index was 2.46.
Work on TWWEHWTSQGQVRMRLFGQRCQKC [Y2W] yielded a protein stability index of 1.53.
In the case of TYAEHWTSQGQVRMRLFGQRCQKC [W3A], the protein stability index is reported as 2.07.
TYCEHWTSQGQVRMRLFGQRCQKC [W3C] gave a protein stability index of 5.05.
Variant TYDEHWTSQGQVRMRLFGQRCQKC [W3D] has a protein stability index of 2.88.
Variant TYEEHWTSQGQVRMRLFGQRCQKC [W3E] has a protein stability index of 1.77.
In the case of TYFEHWTSQGQVRMRLFGQRCQKC [W3F], the protein stability index is reported as 1.75.
In the case of TYGEHWTSQGQVRMRLFGQRCQKC [W3G], the protein stability index is reported as 1.63.
TYHEHWTSQGQVRMRLFGQRCQKC [W3H] showed a protein stability index of 3.61.
TYIEHWTSQGQVRMRLFGQRCQKC [W3I] gave a protein stability index of 1.69.
TYKEHWTSQGQVRMRLFGQRCQKC [W3K] showed a protein stability index of 2.96.
In the case of TYMEHWTSQGQVRMRLFGQRCQKC [W3M], the protein stability index is reported as 2.28.
TYNEHWTSQGQVRMRLFGQRCQKC [W3N] showed a protein stability index of 2.98.
With TYPEHWTSQGQVRMRLFGQRCQKC [W3P] the protein stability index was 2.25.
TYQEHWTSQGQVRMRLFGQRCQKC [W3Q] showed a protein stability index of 2.51.
TYREHWTSQGQVRMRLFGQRCQKC [W3R] showed a protein stability index of 1.73.
TYTEHWTSQGQVRMRLFGQRCQKC [W3T] gave a protein stability index of 3.21.
TYYEHWTSQGQVRMRLFGQRCQKC [W3Y] gave a protein stability index of 1.54.
In the case of TYWCHWTSQGQVRMRLFGQRCQKC [E4C], the protein stability index is reported as 1.15.
TYWGHWTSQGQVRMRLFGQRCQKC [E4G] showed a protein stability index of 2.45.
TYWHHWTSQGQVRMRLFGQRCQKC [E4H] gave a protein stability index of 1.71.
TYWIHWTSQGQVRMRLFGQRCQKC [E4I] gave a protein stability index of 1.77.
Variant TYWKHWTSQGQVRMRLFGQRCQKC [E4K] has a protein stability index of 3.32.
TYWMHWTSQGQVRMRLFGQRCQKC [E4M] gave a protein stability index of 2.86.
Work on TYWNHWTSQGQVRMRLFGQRCQKC [E4N] yielded a protein stability index of 1.1.
Work on TYWPHWTSQGQVRMRLFGQRCQKC [E4P] yielded a protein stability index of 1.49.
TYWQHWTSQGQVRMRLFGQRCQKC [E4Q] gave a protein stability index of 3.01.
Variant TYWEAWTSQGQVRMRLFGQRCQKC [H5A] has a protein stability index of 2.43.
With TYWEDWTSQGQVRMRLFGQRCQKC [H5D] the protein stability index was 2.07.
TYWEEWTSQGQVRMRLFGQRCQKC [H5E] gave a protein stability index of 2.19.
Variant TYWEGWTSQGQVRMRLFGQRCQKC [H5G] has a protein stability index of 1.62.
In the case of TYWEMWTSQGQVRMRLFGQRCQKC [H5M], the protein stability index is reported as 1.53.
Work on TYWENWTSQGQVRMRLFGQRCQKC [H5N] yielded a protein stability index of 1.59.
With TYWEPWTSQGQVRMRLFGQRCQKC [H5P] the protein stability index was 3.28.
In the case of TYWEQWTSQGQVRMRLFGQRCQKC [H5Q], the protein stability index is reported as 2.43.
TYWERWTSQGQVRMRLFGQRCQKC [H5R] gave a protein stability index of 1.38.
For TYWETWTSQGQVRMRLFGQRCQKC [H5T], the protein stability index was 2.12.
In the case of TYWEWWTSQGQVRMRLFGQRCQKC [H5W], the protein stability index is reported as 1.16.
In the case of TYWEYWTSQGQVRMRLFGQRCQKC [H5Y], the protein stability index is reported as 1.58.
Work on TYWEHATSQGQVRMRLFGQRCQKC [W6A] yielded a protein stability index of 2.4.
Variant TYWEHCTSQGQVRMRLFGQRCQKC [W6C] has a protein stability index of 2.25.
For TYWEHDTSQGQVRMRLFGQRCQKC [W6D], the protein stability index was 3.38.
With TYWEHETSQGQVRMRLFGQRCQKC [W6E] the protein stability index was 1.95.
Variant TYWEHFTSQGQVRMRLFGQRCQKC [W6F] has a protein stability index of 1.39.
Variant TYWEHGTSQGQVRMRLFGQRCQKC [W6G] has a protein stability index of 1.75.
Work on TYWEHKTSQGQVRMRLFGQRCQKC [W6K] yielded a protein stability index of 1.6.
Variant TYWEHLTSQGQVRMRLFGQRCQKC [W6L] has a protein stability index of 1.61.
TYWEHMTSQGQVRMRLFGQRCQKC [W6M] showed a protein stability index of 1.52.
TYWEHNTSQGQVRMRLFGQRCQKC [W6N] gave a protein stability index of 2.11.
Variant TYWEHPTSQGQVRMRLFGQRCQKC [W6P] has a protein stability index of 2.07.
For TYWEHQTSQGQVRMRLFGQRCQKC [W6Q], the protein stability index was 2.65.
With TYWEHRTSQGQVRMRLFGQRCQKC [W6R] the protein stability index was 2.7.
With TYWEHSTSQGQVRMRLFGQRCQKC [W6S] the protein stability index was 2.13.
Work on TYWEHTTSQGQVRMRLFGQRCQKC [W6T] yielded a protein stability index of 1.94.
Variant TYWEHVTSQGQVRMRLFGQRCQKC [W6V] has a protein stability index of 2.32.
Variant TYWEHYTSQGQVRMRLFGQRCQKC [W6Y] has a protein stability index of 2.05.
For TYWEHWASQGQVRMRLFGQRCQKC [T7A], the protein stability index was 1.53.
With TYWEHWCSQGQVRMRLFGQRCQKC [T7C] the protein stability index was 3.39.
Work on TYWEHWDSQGQVRMRLFGQRCQKC [T7D] yielded a protein stability index of 1.86.
For TYWEHWFSQGQVRMRLFGQRCQKC [T7F], the protein stability index was 1.21.
Variant TYWEHWHSQGQVRMRLFGQRCQKC [T7H] has a protein stability index of 1.96.
In the case of TYWEHWKSQGQVRMRLFGQRCQKC [T7K], the protein stability index is reported as 2.04.
TYWEHWLSQGQVRMRLFGQRCQKC [T7L] gave a protein stability index of 1.61.
Work on TYWEHWNSQGQVRMRLFGQRCQKC [T7N] yielded a protein stability index of 1.76.
For TYWEHWPSQGQVRMRLFGQRCQKC [T7P], the protein stability index was 2.27.
TYWEHWQSQGQVRMRLFGQRCQKC [T7Q] showed a protein stability index of 1.77.
With TYWEHWRSQGQVRMRLFGQRCQKC [T7R] the protein stability index was 1.98.
In the case of TYWEHWSSQGQVRMRLFGQRCQKC [T7S], the protein stability index is reported as 1.79.
In the case of TYWEHWVSQGQVRMRLFGQRCQKC [T7V], the protein stability index is reported as 1.93.
Variant TYWEHWWSQGQVRMRLFGQRCQKC [T7W] has a protein stability index of 2.06.
With TYWEHWYSQGQVRMRLFGQRCQKC [T7Y] the protein stability index was 1.2.
Work on TYWEHWTAQGQVRMRLFGQRCQKC [S8A] yielded a protein stability index of 3.23.
With TYWEHWTCQGQVRMRLFGQRCQKC [S8C] the protein stability index was 1.79.
In the case of TYWEHWTDQGQVRMRLFGQRCQKC [S8D], the protein stability index is reported as 1.87.
Work on TYWEHWTEQGQVRMRLFGQRCQKC [S8E] yielded a protein stability index of 1.76.
Variant TYWEHWTGQGQVRMRLFGQRCQKC [S8G] has a protein stability index of 2.05.
TYWEHWTHQGQVRMRLFGQRCQKC [S8H] gave a protein stability index of 2.56.
In the case of TYWEHWTIQGQVRMRLFGQRCQKC [S8I], the protein stability index is reported as 2.05.
Variant TYWEHWTKQGQVRMRLFGQRCQKC [S8K] has a protein stability index of 2.5.
In the case of TYWEHWTLQGQVRMRLFGQRCQKC [S8L], the protein stability index is reported as 1.23.
TYWEHWTMQGQVRMRLFGQRCQKC [S8M] showed a protein stability index of 3.02.
Variant TYWEHWTNQGQVRMRLFGQRCQKC [S8N] has a protein stability index of 1.32.
